According to US20230331840A1:

Columns and labels:
[1] = biological target: CD22-his (human) (UniProt P20273); experiment: ELISA
[2] = biological target: h CD22-His (human) (UniProt P20273); experiment: BLI (Fortebio)

EC50 [1]: 0.195 nM
Kd [2]: 0.86 nM
Substance: M971
